{
  "source": "the RNAGym collection of RNA variant scans (doi:10.1073/pnas.2313332121)",
  "parents": {"B1": {"name": "TPR t1 (parent)", "chain": "GACCAAUCUGCCCUCAGAGCUCGAGAACAUCUUCGGAUGCAGAGGAGGCAGGCUUCGGUGGCGCGAUAGCGCCAACGUCCUCAACCUCCAAUGCAUCCCACCACAUGAUGAUGCCUGAAGAGCCUUGGUUUUUUG"}},
  "data": [
    {"variants_of": "B1", "assay": "polymerase ribozyme fitness, log enrichment relative to wild type (log ratio); higher = more active; in vitro selection for triplet polymerase activity", "outline": "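Mutant libraries of both subunits of a heterodimeric triplet polymerase ribozyme were PCR-built, transcribed, and selected once in triplicate, with frozen incubation at −7 °C and capture of gel-excised extended constructs on streptavidin beads before RT-PCR. Illumina sequencing of input and output libraries was filtered to genotypes with ≥10 input reads and ≥1 read per output. Fitness is the logarithm of genotype enrichment over wild-type enrichment, using inverse-variance-weighted replicate averages. The logarithm is base 2.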", "values": [
      {"variant": "GACCAAUCUGCCCUCAGAGCUCGAGAACAUCUUCGGAUGCAGAGGAGGCAGGCUUCGGUGGCGCGACAACGCCAACGUCCCCAACCUCCAAUGCAUCCCACCAAAUGAUCACGCCUGAAGAGCCUUGGUUUUUUG", "note": "[U67C G69A U81C C104A G110C U112C]", "polymerase ribozyme fitness (log ratio)": -8.47},
      {"variant": "GACCAAUCUGCCCUGAGAGCUCGAGAACAUCUUCGGAUGCAGAGGAGGCAGGCUUCGGUGGCGCGAUAGCACCAACGUCCCCAACCUCCAAUGCAUCCCACCACAUGAUGAUGCCUGAAGAGCCUUGGUUUUUUG", "note": "[C15G G71A U81C]", "polymerase ribozyme fitness (log ratio)": -4.61},
      {"variant": "GACCAAUCUGCCCUCUGAGCUCGAGAACAUCUUCGGAUGCAGAGGAGGCAGUCUUCGGUGGCGCGAUAGCGCCAACGUCCUCAACCUCCAAUGCAUCCCACCACAUGAUGAUGCCUAAAGAGCCUUGGUCGUUUG", "note": "[A16U G52U G117A U130C U131G]", "polymerase ribozyme fitness (log ratio)": -4.01},
      {"variant": "GACCAAUCUGCCCUCAGAACUCGAGAACAUCUUCGGAUGCAGAGGAGGCAGGCUUCGGUGGCGCGAUAACGCCAACGUCCUCAACCUCCAAUGCAUCCCACCACAUGAUGAUGCCUGAAGAGCCUUGGUUUUUUG", "note": "[G19A G69A]", "polymerase ribozyme fitness (log ratio)": -4.57},
      {"variant": "GACCAAUCUGACCUCAGAGCUCGAGAACAUCUUCGGAUGCAGAGGAGGCAGGCUUCAGUGGCGCGAUAGCGCAAACGUCCUCAACCUGCAAUGCAUCCCACCACAUGAUGAUGCCUGAAGAGCCUUGGUUUUUUG", "note": "[C11A G57A C73A C88G]", "polymerase ribozyme fitness (log ratio)": -4.51},
      {"variant": "GCCCAAUCUGCCCUCAGAGCUCGAGAACAUCUUCGGAUGCAGAGGAGGAAGGCUUCGGUGGCGCGAUAGCGCCAACGUCCUCAACCUCCAAUUCAUCCCACCACAUGAUAAUGCCUGAAGAGCCUUGGUUUUUUG", "note": "[A2C C49A G93U G110A]", "polymerase ribozyme fitness (log ratio)": -4.44},
      {"variant": "GACCAAUCUGCCCUCAGAGCUCGAGAACAUCUUCGGAUGCAGAGGAGGCAGGGUUCGGUGGCGCGCUAGCGCCAACGUCCUCGUCCUCCAAUGCAUCCCACCACAUGAUGAUGCCUGAAGAGCCUUGGUUUUUUG", "note": "[C53G A66C A83G A84U]", "polymerase ribozyme fitness (log ratio)": -3.08},
      {"variant": "GCCCAAUCUGCUCUCAGAGCUCGAGAACAUCUUCGGAUGCAUAGGAGGCAGGCUUCGGUGGCGCGAUAGCGCCAACGUCCUCAUCCUCCAAUGAAUCCCACCACAUGAUGAUGCCUGAAGAGCCUUGGAUUUUUG", "note": "[A2C C12U G42U A84U C94A U129A]", "polymerase ribozyme fitness (log ratio)": -3.55},
      {"variant": "GACCAAUCUGCCCUCAGAGCUCGAGAACAUCUUCGGAUGCAGAGGAGGCAGGCUUCGGUGGCGCGAUAGCGCCAGCGUCCUCAACCUCCAAUGCAUCCCACCACAUGAUGAUGCCUGAAGAGCCUUGGAUUUUUG", "note": "[A75G U129A]", "polymerase ribozyme fitness (log ratio)": -0.79},
      {"variant": "GACCAAUCUGCCCUCAGAGCUCGAGAACAUCUUCGGAUGCAGAGGAGGCAGGAUUCGGUGGCGCGAUAGCGCCAACGUCCUCAAGCUCCAAUGCAUCCCACCACAUGAUGAUGCCUGAAGAGCCUUGGUUUUUUG", "note": "[C53A C85G]", "polymerase ribozyme fitness (log ratio)": -1.17},
      {"variant": "GACCAAUCUGCCCUCAGAGCUCGAGAACAUCUUCGGAUGCAGAGGAGGCAGGCUUCGGUGGCGCGAUAGCGCCAACGUCCGCAACCUCCAAUGCAUCCCACCACAUGAUGAUGCCUGAAUAGCCUUGGUUUUUUG", "note": "[U81G G120U]", "polymerase ribozyme fitness (log ratio)": -3.76},
      {"variant": "GACCAAUCUGCCCUCAGAGCUCGAGAACAUCUUCGGAUGCAGAGUAGGCAGGCUUCGGUGGCGCGAUAGCGCCAACGUCCUCAACCUCCAAUGCAUCACACCACAUGAUGAUGCCUGAAGAGCCUUGGUUUUUUG", "note": "[G45U C98A]", "polymerase ribozyme fitness (log ratio)": -6.01},
      {"variant": "GACCAAUCUGCCCUCAGAGCUCGAGAACAUCUUCGGAUGCAGAGGAGGCAGGCUUCGGUGGCGCGAUAGCGCCAACGUCCUCAACCUCCAAUGCAUCCCACCACAUGAUGAUGUCUCAAGAGCCUUGGUUUUUUG", "note": "[C114U G117C]", "polymerase ribozyme fitness (log ratio)": -7.14},
      {"variant": "GACCAAUCUGCCCUCAGAGCUCGAGAACAUCUUAGUAUGCAGAGGAGGCAGGCUUCGGUGGCGCGAUAGCGCCAACGUCCUCAACCUCCAAUGCAUCCCACCACAUGAUGAUGCCUGAAGAGCCUUGGUUUUUUG", "note": "[C34A G36U]", "polymerase ribozyme fitness (log ratio)": -4.2},
      {"variant": "GACGAAUCUGCCCUCAGAGCUCGAGAACAUCUUCGGAUGCAGAGGAGGCAGGCUUCGGUGGCGCGAUAGCGCCAACGUCCUCAACCUCCAAUGCAUCCCACCACAUGAUUAUGCCUGAAGAGCCUUGGUUUUUUG", "note": "[C4G G110U]", "polymerase ribozyme fitness (log ratio)": -2.64},
      {"variant": "GACCAAUCUACCCUCAGAGCUCGAGAACAUCUUCGGAUGCAGAGGAGGCAGGCUUGGGUGGCGCGAUAGCGCCAACGUCCUCAACCUCCAAUGCAUCCCACCACAUGAUGAUGCCUAAAGAGCCUUGGUUUUUUG", "note": "[G10A C56G G117A]", "polymerase ribozyme fitness (log ratio)": -3.95},
      {"variant": "GACCAAUCUUCCCUCAGAGCUCGAGAACAUCUUCGGAUGAAGAGGAGGCAGGCUUCGGUGGCGUGAUAGCGCCAACGUCCCCAACCUCCAAUGCAUCCCACCACAUGAUGAUGCCUGAAGAGCCUUGGUUUUUUG", "note": "[G10U C40A C64U U81C]", "polymerase ribozyme fitness (log ratio)": -2.46},
      {"variant": "GACCAAUCUGCCCUCAGAGCUCGAGAACAUCUUCGGAUGCAGAGGAGGCAGGCUUCGGUGGGGCGAUAGCGCCAACGUCCUCAACCUCCAAUGCAUCCCACCACAUGAUGAUGCCUGAAGAUCCUUGGUUUUUUG", "note": "[C62G G122U]", "polymerase ribozyme fitness (log ratio)": -1.08},
      {"variant": "GACCAAUGUGCCCUCAGAGCUCGAGAACAUCUUCGGAUGCAGAGGAGGCAGGCUUCGGGGGCGCGAUAGCGCCAACGUCCUUAAACUCCAAUGCAUCCCACCACAUGAUGAUGCCUGAAGAGCCUCGGUUUUUUG", "note": "[C8G U59G C82U C85A U126C]", "polymerase ribozyme fitness (log ratio)": -1.16},
      {"variant": "GACCAAUCUGCCCUCAGAGCUCGAGAACAUCUUCGGAUGCAGAGGAGGCAAGCUUCGGUAGCGCGAUAGCGCCAACGUCCUCAGCCUCCAAUGCAUCCCACCACAUGAUGAUGCCUGAAUAGCCUUGGUUUUUUG", "note": "[G51A G60A A84G G120U]", "polymerase ribozyme fitness (log ratio)": -2.9},
      {"variant": "GACCAAUCUGCCCUCAGAGCUCGAGAACAUCUUCGGAUGAAGAGGAGGCAGGCUUCGGUGGCGCGAUAGCGCCAACGUCCUCAACUUCCAAUGCAUCCCACCACAUGAUGAUGCCUGAAGAGCCUUGGUUUUUUG", "note": "[C40A C86U]", "polymerase ribozyme fitness (log ratio)": -1.9}
    ]}
  ]
}
